The target in test [1] is T1, BoNT-A C-fragment (UniProt P0DPI0 871-1296). Put plainly: SPR (BIAcore), purified scFv.
Test [2] addresses T1, BoNT-A C-fragment. Nature of the test: SPR (BIAcore), purified scFv; Kd calculated as koff/kon.

T1 sequence (P0DPI0 871-1296): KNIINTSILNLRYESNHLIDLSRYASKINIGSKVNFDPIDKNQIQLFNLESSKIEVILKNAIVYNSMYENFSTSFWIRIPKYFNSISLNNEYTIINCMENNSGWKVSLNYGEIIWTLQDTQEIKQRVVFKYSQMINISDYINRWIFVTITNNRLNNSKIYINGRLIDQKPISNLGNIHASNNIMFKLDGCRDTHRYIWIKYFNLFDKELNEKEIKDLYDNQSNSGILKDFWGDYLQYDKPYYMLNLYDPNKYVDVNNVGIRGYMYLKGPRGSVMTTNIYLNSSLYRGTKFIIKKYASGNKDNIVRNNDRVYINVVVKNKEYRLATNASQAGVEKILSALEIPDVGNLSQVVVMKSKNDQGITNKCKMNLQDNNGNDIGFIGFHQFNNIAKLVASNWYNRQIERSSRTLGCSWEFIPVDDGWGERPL

B1: anti-BoNT-A scFv 2B6 (scFv)
chain: VKLVESGPGLVKPSQSLSLTCTVTGYSITSDYAWNWIRQFPGNKLEWMGYINYDGSNNYNPSLKNRISITRDTSKNQFFLKLNSVTSEDTATYYCARAGDGYYVDWYFDVWGTGTTVIVSSGGGGSGGGGSGGGGSYIELTQSPASLAVSLGQRATTSCRASESVDSYGNSFMHWYQQKPGQPPKLLIYLASNLESGVPARFSGSGSRTDFTLTIDPVEADDAATYYCQQNNEDPYTFGGGTKLEIKS
For B1, in test [1], the koff worked out at 0.0078 s⁻¹ and the kon amounted to 110000 M⁻¹ s⁻¹. The Kd in test [2] was 71.5 nM.

The values above are taken from patent US20050037339A1 (published 2005).
